Patent publication US20100310640A1 (published 2010)

What was measured:
[1] = biological target: HLA-DR DRB1*1501 (human); test: radiolabeled-peptide inhibition, purified HLA-DR
[2] = biological target: HLA-DR DRB1*0101 (human); test: radioligand inhibition, purified HLA-DR
[3] = biological target: HLA-DR DRB1*1302 (human); test: radioligand inhibition, purified HLA-DR
[4] = biological target: HLA-DR DRB1*0401 (human); test: radioligand inhibition, purified HLA-DR
[5] = biological target: HLA-DR DRB1*0701 (human); test: radioligand inhibition, purified HLA-DR
[6] = biological target: HLA-DR DRB1*1501 (human); test: radioligand inhibition, purified HLA-DR
[7] = biological target: HLA-DR DRB1*0101 (human); test: radiolabeled-peptide inhibition, purified HLA-DR
[8] = biological target: HLA-DR DRB1*0401 (human); test: radiolabeled-peptide inhibition, purified HLA-DR
[9] = biological target: HLA-DR DRB1*0701 (human); test: radiolabeled-peptide inhibition, purified HLA-DR
[10] = biological target: HLA-DR DRB3*0101 (human); test: radioligand inhibition, purified HLA-DR
[11] = biological target: HLA-DR DRB1*0401 (human); test: radioligand inhibition, purified HLA-DR; remark: listed apart in the source
[12] = biological target: HLA-DR DRB1*0701 (human); test: radioligand inhibition, purified HLA-DR; remark: listed apart in the source
[13] = biological target: HLA-DR DRB1*1501 (human); test: radioligand inhibition, purified HLA-DR; remark: listed apart in the source
[14] = biological target: HLA-DR DRB1*0301 (human); test: radioligand inhibition, purified HLA-DR
[15] = biological target: HLA-DR DRB1*1501 (human); test: radioligand inhibition, purified HLA-DR; remark: listed apart in the source
[16] = biological target: HLA-DR DRB1*0101 (human); test: radioligand inhibition, purified HLA-DR; remark: listed apart in the source
[17] = biological target: HLA-DR DRB1*1302 (human); test: radioligand inhibition, purified HLA-DR; remark: listed apart in the source
[18] = biological target: HLA-DR DRB1*0301 (human); test: radioligand inhibition, purified HLA-DR; remark: listed apart in the source

KIPVAIKVLRENTSP [1622.03]
IC50 [1]: 0.611 µM

GDPLNNTTPVTGASP [Her2/neu.120]
IC50 [2]: 6.36 µM
IC50 [3]: 1.03 µM
IC50 [4]: 7.46 µM
IC50 [5]: 13.2 µM

KLCIYTDNSIRPEEL [Cyclin D1.123]
IC50 [6]: 0.025 µM

DNSIRPEELLQMELL [Cyclin D1.129]
IC50 [6]: 4.76 µM

WNLAAMTPHDFIEHF [Cyclin D1.150]
IC50 [2]: 6.42 µM

GHCWGPGPTQCVNCS [9019.0061]
IC50 [7]: 1.91 µM
IC50 [8]: 3.74 µM
IC50 [9]: 6.74 µM

ILLVVVLGVVFGILI [9019.0068]
IC50 [1]: 7.12 µM

PESFDGDPASNTAPL [9019.0048]
IC50 [1]: 0.805 µM

FRELVSEFSRMARDP [Peptide 9019.0096]
IC50 [10]: 4.54 µM

SEGGLVENHVDSTMN [Peptide 9019.0183]
IC50 [11]: 1.2 µM
IC50 [12]: 4.62 µM

LQGLPREYVNARHCL [9019.0064]
IC50 [1]: 0.423 µM

ICTIDVYMIMVKCWM [Peptide 1622.04]
IC50 [13]: 2.65 µM

SDVWSYGVTVWELMT [9019.0089]
IC50 [1]: 1.88 µM

ISAVVGILLVVVLGV [9019.0067]
IC50 [1]: 6 µM

EELLQMELLLVNKLK [Cyclin D1.135]
IC50 [14]: 3.39 µM

ICELHCPALVTYNTD [Her2/neu.263]
IC50 [6]: 0.748 µM

QYSWRINGIPQQHTQ [CEA.624 peptide 9019.0138]
IC50 [15]: 2.07 µM

GMSYLEDVRLVHRDL [9019.0002]
IC50 [1]: 0.567 µM

LPRVGCPALPLPPPP [Peptide 9919.0173]
IC50 [16]: 1.91 µM
IC50 [17]: 8.94 µM
IC50 [11]: 6.54 µM

TTPVTGASPGGLREL [Her2/neu.126]
IC50 [6]: 17.1 µM

INGIPQQHTQVLFIA [CEA.629 peptide 9019.0139]
IC50 [15]: 8.29 µM

SPGLSAGATVGIMIG [CEA.680 peptide 9019.0144]
IC50 [15]: 3.93 µM

CAELVREPGCGCCSV [Peptide 9019.0015]
IC50 [18]: 12.3 µM

ELPLQALVMGEGTCE [Peptide 9019.0182]
IC50 [16]: 1.5 µM
IC50 [17]: 9.17 µM
IC50 [11]: 6.78 µM
IC50 [12]: 15.6 µM

VCGIQNSVSANRSDP [CEA.570 peptide 9012.0135]
IC50 [15]: 8.98 µM

SITVSASGTSPGLSA [CEA.671 peptide 9919.0143]
IC50 [15]: 3.11 µM

RPRFRELVSEFSRMA [Peptide 9019.0095]
IC50 [13]: 0.348 µM

PSGVKPDLSYMPIWK [9019.0065]
IC50 [7]: 1.03 µM

LQRYSEDPTVPLPSE [Peptide 9019.0099]
IC50 [13]: 5.31 µM

SDSVILNVLYGPDAP [CEA.123 peptide 9019.0119 (position 226)]
IC50 [15]: 0.351 µM

GATLERPKTLSPGKN [Peptide 9019.0102]
IC50 [16]: 1.81 µM
IC50 [17]: 5.33 µM
IC50 [11]: 2.79 µM

PERLAACGPPPVAPP [Peptide 9019.0179]
IC50 [13]: 4.05 µM

APTIRGDPECHLFYN [Peptide 9019.0022]
IC50 [13]: 3.67 µM

ITGYLYISAWPDSLP [9019.0050]
IC50 [1]: 0.152 µM

RWCIPWQRLLLTASL [CEA.10 peptide 9019.0104]
IC50 [15]: 0.061 µM

SSYLSGANLNLSCHS [CEA.603 peptide 9012.0137]
IC50 [15]: 13 µM

MRKIVATWMLEVCEE [Cyclin D1.56]
IC50 [6]: 0.087 µM

EALLESSLRQAQQNM [Cyclin D1.252]
IC50 [6]: 8.18 µM

TVGIMIGVLVGVALI [CEA.688 peptide 9019.05]
IC50 [15]: 7.77 µM

CYGLGMEHLREVRAV [9019.0044]
IC50 [1]: 0.69 µM
